Source: EP4541444A1 (Cytiva BioProcess R&D AB, dated 2025)

Molecular target: T1, human serum albumin (human, UniProt P02768 25-609)
T1 construct: also called HSA
Experiment: SPR (Biacore), ligand immobilized on chip

B1: scFvHSA (scFv)
scFv: EVQLLESGGGLVQPGGSLRLSCAVSGIDLSNYAINWVRQAPGKGLEWIGIIWASGTTFYATWAKGRFTISRDNSKNTVYLQMNSLRAEDTAVYYCARTVPGYSTAPYFDLWGQGTLVTVSSGGGGSGGGGSGGGGSDIQMTQSPSSVSASVGDRVTITCQSSPSVWSNFLSWYQQKPGKAPKLLIYEASKLTSGVPSRFSGSGSGTDFTLTISSLQPEDFATYYCGGGYSSISDTTFGGGTKVEIKRTVQASGSHHHHHH
notes: also called anti-HSA scFv
binding result: binds
